Source: the Immune Epitope Database (IEDB)
Each block holds one sequence with its values, some of them ahead of it.

Legend:
HLA-B*44:03 = assay: IEDB peptide-MHC binding, purified MHC/competitive/radioactivity; filed as Kd, often an IC50 or EC50 that approximates it; ≥ and ≤ were set here for values at or beyond the usual limits of such assays
HLA-B*40:01 [1] = assay: as above
HLA-B*44:02 [2] = assay: as above
HLA-A*03:01 [3] = assay: IEDB peptide-MHC binding, purified MHC/competitive/fluorescence; filed as Kd, often an IC50 or EC50 that approximates it; ≥ and ≤ were set here for values at or beyond the usual limits of such assays
HLA-A*24:03 = assay: IEDB peptide-MHC binding, purified MHC/direct/fluorescence; filed as Kd, often an IC50 or EC50 that approximates it; ≥ and ≤ were set here for values at or beyond the usual limits of such assays
HLA-B*15:03 = assay: IEDB peptide-MHC binding, purified MHC/competitive/radioactivity; filed as Kd, often an IC50 or EC50 that approximates it; ≥ and ≤ were set here for values at or beyond the usual limits of such assays
HLA-A*26:01 [4] = assay: IEDB peptide-MHC binding, purified MHC/competitive/fluorescence; filed as Kd, often an IC50 or EC50 that approximates it; ≥ and ≤ were set here for values at or beyond the usual limits of such assays; conditions: source organism: Escherichia coli
HLA-B*44:02 [5] = assay: IEDB peptide-MHC binding, purified MHC/direct/fluorescence; filed as Kd, often an IC50 or EC50 that approximates it; ≥ and ≤ were set here for values at or beyond the usual limits of such assays
HLA-B*18:01 = assay: as above; conditions: source organism: dengue virus type 2
HLA-A*30:01 = assay: IEDB peptide-MHC binding, purified MHC/competitive/radioactivity; filed as Kd, often an IC50 or EC50 that approximates it; ≥ and ≤ were set here for values at or beyond the usual limits of such assays; conditions: source organism: Vaccinia virus WR
HLA-B*08:01 [6] = assay: as above; conditions: source organism: Vaccinia virus WR
HLA-A*32:01 = assay: as above; conditions: source organism: Vaccinia virus WR
HLA-B*15:01 [7] = assay: as above; conditions: source organism: Vaccinia virus WR
HLA-A*69:01 = assay: IEDB peptide-MHC binding, purified MHC/direct/fluorescence; filed as Kd, often an IC50 or EC50 that approximates it; ≥ and ≤ were set here for values at or beyond the usual limits of such assays
HLA-B*27:05 = assay: as above
HLA-A*26:01 [8] = assay: as above
HLA-B*58:01 = assay: as above
HLA-B*40:01 [9] = assay: as above
HLA-A*02:01 = assay: as above
HLA-A*03:01 [10] = assay: as above
HLA-B*08:01 [11] = assay: as above
HLA-B*07:02 = assay: as above
HLA-A*01:01 = assay: as above; conditions: source organism: Bacillus anthracis
HLA-A*31:01 = assay: as above
HLA-A*11:01 = assay: as above
HLA-B*15:01 [12] = assay: as above
[13] = source organism: Dengue virus 4 Philippines/H241/1956
[14] = source organism: Dengue virus 2 Jamaica/1409/1983
[15] = source organism: Mammarenavirus lassaense
[16] = source organism: Vaccinia virus Copenhagen
[17] = source organism: Dengue virus 3 Martinique/1243/1999
[18] = source organism: Vaccinia virus WR
[19] = source organism: Bacillus anthracis
[20] = source organism: Aggregatibacter actinomycetemcomitans

Sequence: ADTGCAVSW
- Kd (HLA-B*44:03; [13]): 224 nM

Sequence: AEMEEALRGL
- Kd (HLA-B*44:03; [14]): 31.6 nM
- Kd (HLA-B*40:01 [1]; [14]): 13 nM
- Kd (HLA-B*44:02 [2]; [14]): 17.6 nM

Sequence: AMSTWSFYH
- Kd (HLA-A*03:01 [3]; source organism: Yersinia pestis Nepal516): 13.3 nM

Sequence: AVLPRDMVF
- Kd (HLA-A*24:03; [15]): 110 nM

Sequence: AWENTVVDL
- Kd (HLA-A*24:03; [15]): 1500 nM

Sequence: CMVICLLSF
- Kd (HLA-B*15:03; [16]): 641 nM

- Kd (HLA-A*26:01 [4]): ≥ 20000 nM
Sequence: DVSEQLELI

Sequence: EEEQTLTIL
- Kd (HLA-B*44:02 [5]; source organism: dengue virus type 2): ≥ 20000 nM
- Kd (HLA-B*18:01): 4020 nM

Sequence: EESRTIRVL
- Kd (HLA-B*44:03; [17]): 30.2 nM
- Kd (HLA-B*40:01 [1]; [17]): 249 nM

Sequence: EKTQYTNDF
- Kd (HLA-A*30:01): 1340 nM
- Kd (HLA-B*08:01 [6]): ≥ 26700 nM
- Kd (HLA-B*15:03; [18]): 832 nM
- Kd (HLA-A*32:01): ≥ 77800 nM
- Kd (HLA-B*15:01 [7]): 12700 nM

Sequence: EQKLRPNSF
- Kd (HLA-A*30:01): 1010 nM
- Kd (HLA-B*08:01 [6]): 6140 nM
- Kd (HLA-B*15:03; [18]): 1100 nM
- Kd (HLA-A*32:01): 12200 nM
- Kd (HLA-B*15:01 [7]): 8990 nM

Sequence: ESVKFGNSI
- Kd (HLA-B*15:03; [18]): 102 nM

Sequence: FHVRRLLKF
- Kd (HLA-B*15:03; [16]): 21.3 nM

Sequence: FIFGKMGAG
- Kd (HLA-A*69:01; [19]): ≥ 20000 nM
- Kd (HLA-B*27:05; [19]): ≥ 20000 nM
- Kd (HLA-A*26:01 [8]; [19]): 5370 nM
- Kd (HLA-B*58:01; [19]): ≥ 20000 nM
- Kd (HLA-B*40:01 [9]; [19]): ≥ 20000 nM
- Kd (HLA-A*02:01; [19]): ≥ 20000 nM
- Kd (HLA-B*44:02 [5]; [19]): ≥ 20000 nM
- Kd (HLA-A*03:01 [10]; [19]): ≥ 20000 nM
- Kd (HLA-B*08:01 [11]; [19]): ≥ 20000 nM
- Kd (HLA-B*07:02; [19]): ≥ 20000 nM
- Kd (HLA-A*01:01): ≥ 20000 nM
- Kd (HLA-A*31:01; [19]): ≥ 20000 nM
- Kd (HLA-A*11:01; [19]): ≥ 20000 nM
- Kd (HLA-B*15:01 [12]; [19]): ≥ 20000 nM

Sequence: FLSNCEKQF
- Kd (HLA-B*15:03; [18]): 21 nM

- Kd (HLA-A*03:01 [3]; source organism: Fusobacterium vincentii ATCC 49256): 39.5 nM
Sequence: FSFGDYFKK

Sequence: FSILFSNNF
- Kd (HLA-B*15:03; [18]): 29.7 nM

Sequence: HEMYWVSGV
- Kd (HLA-B*44:02 [2]; [13]): 51.5 nM

Sequence: IIIPLSVSI
- Kd (HLA-A*30:01): 1290 nM
- Kd (HLA-B*08:01 [6]): ≥ 31000 nM
- Kd (HLA-B*15:03; [18]): 1230 nM
- Kd (HLA-A*32:01): 69.6 nM
- Kd (HLA-B*15:01 [7]): 298 nM

Sequence: IKVTAASPM
- Kd (HLA-B*15:03; [18]): 2.76 nM

Sequence: IMTSGVIPF
- Kd (HLA-B*15:03; [16]): 0.223 nM

Sequence: ISSRESVSF
- Kd (HLA-B*15:03; [16]): 12.1 nM

Sequence: ITNTEINSF
- Kd (HLA-B*15:03; [18]): 421 nM
- Kd (HLA-A*32:01): 413 nM

Sequence: KKMQSYNSV
- Kd (HLA-B*15:03; [18]): 2.81 nM

Sequence: KLFFQVIAK
- Kd (HLA-A*03:01 [3]; source organism: Yersinia pestis Antiqua): 6.5 nM

Sequence: KLVIFPSHL
- Kd (HLA-B*15:03; [18]): 1170 nM

- Kd (HLA-A*69:01; [20]): ≥ 20000 nM
- Kd (HLA-B*27:05; [20]): ≥ 20000 nM
- Kd (HLA-A*26:01 [8]; [20]): ≥ 20000 nM
- Kd (HLA-B*58:01; [20]): ≥ 20000 nM
- Kd (HLA-B*40:01 [9]; [20]): ≥ 20000 nM
- Kd (HLA-A*02:01; [20]): ≥ 20000 nM
- Kd (HLA-A*03:01 [10]; [20]): ≥ 20000 nM
- Kd (HLA-B*08:01 [11]; [20]): ≥ 20000 nM
- Kd (HLA-A*24:03; [20]): ≥ 20000 nM
- Kd (HLA-B*07:02; [20]): ≥ 20000 nM
- Kd (HLA-A*31:01; [20]): ≥ 20000 nM
- Kd (HLA-A*11:01; [20]): ≥ 20000 nM
- Kd (HLA-B*15:01 [12]; [20]): ≥ 20000 nM
Sequence: KYDDRIQSQ
